In general, Kd refers to the free concentration of one partner at which half of the binding sites on the other are occupied at equilibrium, for simple one-to-one binding. A low value points to tighter binding. By kon is commonly meant the rate constant with which the complex forms. The low end stands for slow association, the high end for fast association.

Like-named read-outs stand apart in the source and are kept apart here.

From article PMC9204724 (iScience, 2022) come the findings set out here.

The target of assay [1] is T1, acto-Myo1C^0-ΔTH1 (no Tpm) (Homo sapiens, UniProt O00159). Put plainly: stopped-flow, pyrene-actin fluorescence, K0.[…] of fast phase vs [ATP]. Format: binding.
T1 sequence (O00159 36-891, stated change not applied): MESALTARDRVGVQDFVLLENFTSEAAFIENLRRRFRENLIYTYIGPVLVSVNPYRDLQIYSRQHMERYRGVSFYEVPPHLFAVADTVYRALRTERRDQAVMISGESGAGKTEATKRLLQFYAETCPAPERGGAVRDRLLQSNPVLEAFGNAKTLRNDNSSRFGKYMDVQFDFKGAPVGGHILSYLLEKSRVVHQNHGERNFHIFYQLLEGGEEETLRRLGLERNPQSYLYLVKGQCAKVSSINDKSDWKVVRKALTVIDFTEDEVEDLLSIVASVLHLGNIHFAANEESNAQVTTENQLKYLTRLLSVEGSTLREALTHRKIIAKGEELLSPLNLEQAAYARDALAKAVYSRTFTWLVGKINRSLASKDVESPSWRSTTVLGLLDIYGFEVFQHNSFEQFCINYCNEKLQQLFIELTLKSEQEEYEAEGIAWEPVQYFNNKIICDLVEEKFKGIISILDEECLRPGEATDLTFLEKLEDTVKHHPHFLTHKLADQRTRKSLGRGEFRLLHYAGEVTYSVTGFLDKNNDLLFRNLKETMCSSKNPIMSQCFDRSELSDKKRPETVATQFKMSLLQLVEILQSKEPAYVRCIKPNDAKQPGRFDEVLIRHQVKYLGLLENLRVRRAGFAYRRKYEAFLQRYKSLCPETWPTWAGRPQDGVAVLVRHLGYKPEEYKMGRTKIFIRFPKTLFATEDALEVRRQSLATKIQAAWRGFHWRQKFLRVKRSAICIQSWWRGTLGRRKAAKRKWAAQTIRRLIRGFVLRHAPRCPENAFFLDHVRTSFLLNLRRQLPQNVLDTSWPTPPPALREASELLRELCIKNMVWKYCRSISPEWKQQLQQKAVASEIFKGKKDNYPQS
Assay [2] concerns the target T1, acto-Myo1C^0-ΔTH1 (no Tpm). Format: binding.
Assay [3] addresses human β-actin, filamentous (human) (UniProt P60709).
Assay [4] addresses β-actin–AcTpm1.6 cofilament (human) (UniProt P60709).
Assay [5] concerns the target β-actin–AcTpm2.1 cofilament (human) (UniProt P60709).
In assay [6] the target is β-actin–AcTpm3.1 cofilament (human) (UniProt P60709).
The target in assay [7] is β-actin–AcTpm4.2 cofilament (human) (UniProt P60709).
Assay [8] concerns the target β-actin–Tpm1.6 cofilament (human) (UniProt P60709).
Assay [9] concerns the target β-actin–Tpm2.1 cofilament (human) (UniProt P60709).
The target of assay [10] is β-actin–Tpm3.1 cofilament (human) (UniProt P60709).
Assay [11] addresses β-actin–Tpm4.2 cofilament (human) (UniProt P60709).
Assay [12] has as its target chicken skeletal muscle α-actin, filamentous (chicken) (UniProt P68139). Briefly: stopped-flow kinetics.
In assay [13] the target is α-actin–Tpm1.7 cofilament (chicken | human) (UniProt P68139). Put plainly: stopped-flow kinetics.
The target of assay [14] is α-actin–Tpm3.1 cofilament (chicken | human) (UniProt P68139). Put plainly: stopped-flow kinetics.

Consider `Nc1ncnc2c1ncn2[C@@H]1O[C@H](COP(=O)(O)OP(=O)(O)OP(=O)(O)O)[C@@H](O)[C@H]1O` [ATP], for which the Kd in assay [1] amounted to 154000 ± 31000 nM.
For `Nc1ncnc2c1ncn2[C@@H]1O[C@H](COP(=O)(O)OP(=O)(O)O)[C@@H](O)[C@H]1O` [ADP], binding in assay [2] was put at a Kd of 460 ± 80 nM.
With “human tropomyosin Tpm1.8, non-acetylated (natural protein)”, the Tdiss in assay [3] was determined as 41.6 °C.
As to “human non-muscle myosin-2A heavy meromyosin (NM-2A-HMM) with essential and regulatory light chains, phosphorylated (from UniProt P35579-1;P60660-1;O14950) (complex)”, the Kapp of the actin-activated steady-state ATPase (Michaelis–Menten fit, 30 °C) in assay [4] was found to be 17.7 µM; in assay [5] it was 40.9 µM; in [6], 26.6 µM; in assay [7] it was 26.1 µM; in [8] it was 27.8 µM; in [9] it was 37.8 µM. The Kapp of the actin-activated steady-state ATPase (Michaelis–Menten fit, 30 °C) in assay [10] was 19.6 µM; in assay [11], 26.2 µM. The kcat/Kapp of the actin-activated steady-state ATPase (30 °C) in assay [4] was 17400 M⁻¹ s⁻¹; in assay [7] it was 23400 M⁻¹ s⁻¹; in assay [8] it was 12400 M⁻¹ s⁻¹; in assay [9], 10200 M⁻¹ s⁻¹; in [10] it was 29100 M⁻¹ s⁻¹; in assay [11] it was 11200 M⁻¹ s⁻¹.
“human Myo1C^0-ΔTH1, tail truncated myosin-1C isoform C^0, co-produced with calmodulin (from UniProt P0DP23 1-149) (complex)”: the results for the dissociation constant Kd in assay [12], in assay [13] and in assay [14] were 13.7 nM, 19.6 nM and 18.4 nM, respectively. The figures for the kon in assay [12], in assay [13] and in assay [14] were 1.46e+06 M⁻¹ s⁻¹, 1.33e+06 M⁻¹ s⁻¹ and 1.36e+06 M⁻¹ s⁻¹, respectively.
